Reference: patent US20230348616A1

Assays:
Assay in all cases: flow cytometry on peptide-pulsed T2 cells, scFv 100 nM
5A = target: 5A
7F = target: 7F
1F = target: 1F
4A = target: 4A
2M = target: 2M
3A = target: 3A
6L = target: 6L

Binder	standardized gMFI (5A)	standardized gMFI (7F)	standardized gMFI (4A)	other results
NYA-2047 (scFv) scFv: GQVQLVESGGGVVQPGRSLRLSCAASGFSIRSYDMHWVRQAPGKGLEWVATISYDGSQKYYADSVKGRFTISRDNSKNTLYLQMSSLRAEDTAVYHCARGSSGHYEAFDIWGQGTLVTVSSGGGGSGGGGSGGGGSQSVLTQPPSVSAAPGQKVTISCSGSSSNIGNWYVSWYQQLPGTAPKLLIYDNNKRPSGIPDRFSGSKSGTSATLGITGLQTGDEADYYCGTWDSSLSAPWVFGGGTKVTVLGAAAGAGGDYKDDDDKGAAAHHHHHH	1.03	3.11		
NYA-2048 (scFv) scFv: GQVQLVESGGGVVQPGRSLRLSCAASGFSIRSYDMHWVRQAPGKGLEWVATISYDGSQKYYADSVKGRFTISRDNSKNTLYLQMSSLRAEDTAVYHCARGSSGHYEAFDIWGQGTLVTVSSGGGGSGGGGSGGGGSQSVLTQPPSASGTPGQRVTISCSGSSSNIGNWYVSWYQQLPGTAPKLLIYDNNKRPSGVPDRFSGSKSGTSASLAISGLQSEDEADYYCGTWDSSLSAPWVFGGGTKLTVLGAAAGAGGDYKDDDDKGAAAHHHHHH		1.46		
NYA-1143 (scFv) scFv: GEVQLVESGGGVVQPGRSLTPSCSASGFSIRSYDIHWVRLAPGKGLEWVATISYDGSQKYFADSVKGRFTIFRDESENMVYLQMSGLRVEDTAVYHCARGSSGHYEAFDIWGQGTMVTVSSGGGGSGGGGSGGGGSQSVLTQPPSVSAAPGQKVTISCSGSSSNIGNWYVSWYQQLPGTAPKLLIYDNNKRPSGIPDRFSGSKSGTSATLGITGLQTGDEADYYCGTWDSSLSAPWVFGGGTKVTVLGAAAGAGGDYKDDDDKGAAAHHHHHH		4.26	5.91	standardized gMFI (1F): 1.77
NYA-2143 (scFv) scFv: GEVQLVESGGGVVQPGRSLTPSCSASGFSIRSYDIHWVRLAPGKGLEWVATISYDGSQKYFADSVKGRFTIFRDESENMVYLQMSGLRVEDTAVYHCARGSSGHYEAFDIWGQGTMVTVSSGGGGSGGGGSGGGGSQSVLTQPPSVSAAPGQKVTISCSGSSSNIGNWYVSWYQRLPGTAPKLLIYDNNKRPSGIPDRFSGSKSGTSATLGITGLQTGDEADYYCGTWDSSLSAPWVFGGGTKVTVLGAAAGAGGDYKDDDDKGAAAHHHHHH	4.3	5.26		
NYA-1154 (scFv) scFv: GEVQLVESGGGVVQPGRSLTPSCSASGFSIRSYDMHWVRQAPGKGLEWVATISYDGSQKYFADSVKGRFTIFRDESENMVYLQMSGLRVEDTAVYHCARGSSNHYEAFDIWGQGTMVTVSSGGGGSGGGGSGGGGSQSVLTQPPSVSAAPGQKVTISCSGSSSNIGNNYVSWYQRLPGTAPKLLIYDNNKRPSGIPDRFSGSKSGTSATLGITGLQTGDEADYYCGAWDSSLSAPWVFGGGTKVTVLGAAAGAGGDYKDDDDKGAAAHHHHHH	1.12			standardized gMFI (1F): 3.98
NYA-1163 (scFv) scFv: GEVQLVESGGGVVQPGRSLTPSCSASGFSIRSYDIHWVRLAPGKGLEWVATISYDGSQKYFADSVKGRFTIFRDESENMVYLQMSGLRVEDTAVYHCARGSSGHYEAFDIWGQGTMVTVSSGGGGSGGGGSGGGGSQSVLTQPPSVSAAPGQKVTISCSGSSSNIGNNYVSWYQQLPGTAPKLLIYDNNKRPSGIPDRFSGSKSGTSATLGITGLQTGDEADYYCGTWDSSLSAPWVFGGGTKVTVLGAAAGAGGDYKDDDDKGAAAHHHHHH		1.11		standardized gMFI (2M): 1.85; standardized gMFI (3A): 1.7; standardized gMFI (6L): 1.74
NYA-2023 (scFv) scFv: GEVQLVESGGGVVQPGRSLTPSCSASGFSIRSYDIHWVRQAPGKGLEWVATISYDGSQKYFADSVKGRFTIFRDESENMVYLQMSGLRVEDTAVYHCARGSSGHYEAFDIWGQGTMVTVSSGGGGSGGGGSGGGGSQSVLTQPPSVSAAPGQKVTISCSGSSSNIGNWYVSWYQQLPGTAPKLLIYDNNKRPSGIPDRFSGSKSGTSATLGITGLQTGDEADYYCGTWDSSLSAPWVFGGGTKVTVLGAAAGAGGDYKDDDDKGAAAHHHHHH	1.21			
NYA-2035 (scFv) scFv: GEVQLVESGGGVVQPGRSLTPSCSASGFSIRSYDIHWVRLAPGKGLEWVATISYDGSQKYFADSVKGRFTIFRDESENMVYLQMSGLRVEDTAVYHCARGSSGHYEAFDIWGQGTMVTVSSGGGGSGGGGSGGGGSQSVLTQPPSVSAAPGQKVTISCSGSSSNIGNWKVSWYQQLPGTAPKLLIYDNNKRPSGIPDRFSGSKSGTSATLGITGLQTGDEADYYCGTWDSSLSAPWVFGGGTKVTVLGAAAGAGGDYKDDDDKGAAAHHHHHH	2.27		2.16	
NYA-2044 (scFv) scFv: GEVQLVESGGGLVQPGGSLRLSCAASGFSIRSYDIHWVRLAPGKGLEWVATISYDGSQKYYADSVKGRFTISRDESKNTLYLQMNSLRAEDTAVYHCARGSSGHYEAFDIWGQGTLVTVSSGGGGSGGGGSGGGGSQSVLTQPPSVSAAPGQKVTISCSGSSSNIGNWYVSWYQQLPGTAPKLLIYDNNKRPSGIPDRFSGSKSGTSATLGITGLQTGDEADYYCGTWDSSLSAPWVFGGGTKVTVLGAAAGAGGDYKDDDDKGAAAHHHHHH	2.2			
NYA-2045 (scFv) scFv: GEVQLVESGGGLVQPGGSLRLSCAASGFSIRSYDIHWVRLAPGKGLEWVATISYDGSQKYYADSVKGRFTISRDESKNTLYLQMNSLRAEDTAVYHCARGSSGHYEAFDIWGQGTLVTVSSGGGGSGGGGSGGGGSQSVLTQPPSASGTPGQRVTISCSGSSSNIGNWYVSWYQQLPGTAPKLLIYDNNKRPSGVPDRFSGSKSGTSASLAISGLQSEDEADYYCGTWDSSLSAPWVFGGGTKLTVLGAAAGAGGDYKDDDDKGAAAHHHHHH	0.94		1.17	
